This note sets out measurements from publication PMC4500674 (Archives of biochemistry and biophysics, 2015).

In general, Kd refers to the constant that tells how readily two partners part at equilibrium. Read a low Kd as tighter binding.

This assay deals with T1, human Mia40, wild type, short linker form (human, UniProt Q8N4Q1 1-142).
T1 sequence: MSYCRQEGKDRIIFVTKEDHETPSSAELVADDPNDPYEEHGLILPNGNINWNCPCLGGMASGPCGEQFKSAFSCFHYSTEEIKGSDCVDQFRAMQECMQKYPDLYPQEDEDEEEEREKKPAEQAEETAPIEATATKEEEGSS
As to the kind of experiment: stopped-flow fluorescence kinetics.

B1: reduced bovine pancreatic ribonuclease A (natural protein, UniProt P61823 27-150, looked up)
chain: KETAAAKFERQHMDSSTSAASSSNYCNQMMKSRNLTKDRCKPVNTFVHESLADVQAVCSQKNVACKNGQTNCYQSYSTMSITDCRETGSSKYPNCAYKTTQANKHIIVACEGNPYVPVHFDASV
B1 displayed a Kd of 10.4 ± 0.2 µM.
